For 94 variants, protein stability index results are on record in the supplement of paper PMC10567573.

B1: DLC1 (parent)
chain: NDDSADYQHFLQDCVDGLFKEVKE
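Further: lentivirally expressed fusions sorted by FACS into six bins by GFP to DsRed ratio, PSI derived from sequencing read proportions per bin multiplied by bin number.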

Variants of B1 are the subject of the series. The experiment in a line: protein stability index of a GFP-peptide fusion (GPS, HEK-293T) (PSI 1-6); higher = more stable. The following applies: c terminus: a fixed tail appended.
With NDDSADYQHFLQDCNDGLFKEVKE, the protein stability index was determined as 4.78.

For NDDSADYQHFLQDCLDGLFKEVKE, the protein stability index came to 3.34.

As to NDDSADYQHFLQDCHDGLFKEVKE, the protein stability index was determined as 4.94.

As to NDDSADYQHFLQDCGDGLFKEVKE, the protein stability index stood at 5.45.

As for NDDSADYQHFLQDCDDGLFKEVKE, the protein stability index was found to be 4.8.

Turning to NDDSADYQHFLQDCRDGLFKEVKE, the protein stability index stood at 4.73.

NDDSADYQHFLQDCYDGLFKEVKE: the protein stability index amounted to 3.61.

For NDDSADYQHFLQDCWDGLFKEVKE, the protein stability index came to 3.8.

With NDDSADYQHFLQDCMDGLFKEVKE, the protein stability index was determined as 4.34.

Regarding NDDSADYQHFLQDCVDDLFKEVKE, the protein stability index is 4.28.

Regarding NDDSADYQHFLQDCVDQLFKEVKE, the protein stability index amounted to 2.44.

NDDSADYQHFLQDCVDHLFKEVKE: the protein stability index came out at 2.37.

On to NDDSADYQHFLQDCVDLLFKEVKE, for which the protein stability index was found to be 1.82.

With NDDSADYQHFLQDCVDGLFKHVKE, the protein stability index worked out at 2.42.

As for NDDSADYQHFLQDCVDGLFKLVKE, the protein stability index came to 1.67.

Take NDDSADYQHFLQDCVDGLFKCVKE: the protein stability index turned out to be 2.

NDDSADYQHFLQDCVDGLFKYVKE: the protein stability index was 2.03.

Consider NDDSADYQHFLRDCVDGLFKEVKE, for which the protein stability index amounted to 2.42.

Regarding NDDSADYQHFLPDCVDGLFKEVKE, the protein stability index came out at 4.15.

On to NMDSADYQHFLQDCVDGLFKEVKE, for which the protein stability index stood at 2.48.

NDDSADYQHFLQDCVCGLFKEVKE: the protein stability index came to 2.29.

For NDDSADYQHFLQDCVRGLFKEVKE, the protein stability index stood at 4.08.

With NDDSADYQHFLQDCVPGLFKEVKE, the protein stability index worked out at 4.34.

In the case of NDDSADYQHFLQDCVFGLFKEVKE, the protein stability index was found to be 2.34.

For the variant NDDSADYQHFLQDCVVGLFKEVKE, the protein stability index was 2.99.

On to NDDSADYQHFLQDCVTGLFKEVKE, for which the protein stability index was determined as 3.28.

For NDDSADYQHFLQDCVDGLFLEVKE, the protein stability index is 2.87.

Regarding NDDSEDYQHFLQDCVDGLFKEVKE, the protein stability index turned out to be 2.92.

As for NDDSKDYQHFLQDCVDGLFKEVKE, the protein stability index was 2.93.

For NDDSLDYQHFLQDCVDGLFKEVKE, the protein stability index came out at 2.73.

As for NDDSADYQHFIQDCVDGLFKEVKE, the protein stability index was 3.54.

For NDDSADYQHFCQDCVDGLFKEVKE, the protein stability index turned out to be 3.07.

Take NDDSALYQHFLQDCVDGLFKEVKE: the protein stability index is 2.03.

Take NDDSACYQHFLQDCVDGLFKEVKE: the protein stability index was determined as 2.8.

For NDDSAKYQHFLQDCVDGLFKEVKE, the protein stability index came to 3.

As for NDDSASYQHFLQDCVDGLFKEVKE, the protein stability index came to 3.44.

Take NDDSADYQHFLQDIVDGLFKEVKE: the protein stability index turned out to be 2.41.

For NDDSADYQHFLQDAVDGLFKEVKE, the protein stability index amounted to 2.33.

As to NDDSADYQHFLQDWVDGLFKEVKE, the protein stability index came out at 4.31.

Turning to NDDSADYQHFLQDRVDGLFKEVKE, the protein stability index was determined as 4.87.

On to NDDSADYQHFLQDCVDGLFKELKE, for which the protein stability index amounted to 3.32.

Regarding NDDSADYQHFLQDCVDGLFKERKE, the protein stability index was 5.08.

Consider NDDSADYQHFLQDCVDGLFKEWKE, for which the protein stability index was 4.73.

Regarding NDDSADYQHFLQDCVDGLFKEMKE, the protein stability index was determined as 4.08.

As to HDDSADYQHFLQDCVDGLFKEVKE, the protein stability index came out at 2.29.

Take IDDSADYQHFLQDCVDGLFKEVKE: the protein stability index was 1.59.

As for KDDSADYQHFLQDCVDGLFKEVKE, the protein stability index was found to be 3.44.

For NDSSADYQHFLQDCVDGLFKEVKE, the protein stability index is 2.4.

On to NDTSADYQHFLQDCVDGLFKEVKE, for which the protein stability index was 2.2.

Consider NDDNADYQHFLQDCVDGLFKEVKE, for which the protein stability index came out at 2.57.

Regarding NDDMADYQHFLQDCVDGLFKEVKE, the protein stability index was 2.05.

In the case of NDDCADYQHFLQDCVDGLFKEVKE, the protein stability index was 1.56.

NDDPADYQHFLQDCVDGLFKEVKE: the protein stability index was 2.34.

For NDDRADYQHFLQDCVDGLFKEVKE, the protein stability index is 2.41.

NDDIADYQHFLQDCVDGLFKEVKE: the protein stability index came out at 2.

As to NDDSADIQHFLQDCVDGLFKEVKE, the protein stability index worked out at 1.75.

Consider NDDSADMQHFLQDCVDGLFKEVKE, for which the protein stability index is 2.08.

For NDDSADPQHFLQDCVDGLFKEVKE, the protein stability index turned out to be 4.62.

Regarding NDDSADHQHFLQDCVDGLFKEVKE, the protein stability index turned out to be 4.36.

Regarding NDDSADYQHFLQDCVDGLFKEVKQ, the protein stability index is 2.51.

Regarding NDDSADYQHFLQDCVDGLFKEVKR, the protein stability index came out at 2.01.

For NDDSADYKHFLQDCVDGLFKEVKE, the protein stability index worked out at 2.1.

Consider NDDSADYFHFLQDCVDGLFKEVKE, for which the protein stability index worked out at 2.65.

In the case of NDDSADYEHFLQDCVDGLFKEVKE, the protein stability index was 2.62.

As for NDDSADYPHFLQDCVDGLFKEVKE, the protein stability index was 2.64.

Regarding NDDSADYDHFLQDCVDGLFKEVKE, the protein stability index came to 2.96.

In the case of NDDSADYQHFLQDCVDGLKKEVKE, the protein stability index amounted to 5.25.

NDDSADYQHFLQDCVDGLNKEVKE: the protein stability index came to 5.21.

As to NDDSADYQHFLQDCVDGLQKEVKE, the protein stability index worked out at 5.08.

Regarding NDDSADYQHFLQDCVDGLWKEVKE, the protein stability index is 2.96.

Regarding NDDSADYQHFLQDCVDGLEKEVKE, the protein stability index worked out at 4.54.

Turning to NDDSADYQHFLQDCVDGLLKEVKE, the protein stability index stood at 1.51.

NDDSADYQHDLQDCVDGLFKEVKE: the protein stability index amounted to 5.1.

NDDSADYQHSLQDCVDGLFKEVKE: the protein stability index was found to be 3.92.

NDDSADYQHKLQDCVDGLFKEVKE: the protein stability index turned out to be 3.6.

Consider NDDSADYQHTLQDCVDGLFKEVKE, for which the protein stability index worked out at 2.47.

For NDDSADYQHFLQMCVDGLFKEVKE, the protein stability index is 2.34.

In the case of NDDSADYQEFLQDCVDGLFKEVKE, the protein stability index was 3.47.

With NDDSADYQYFLQDCVDGLFKEVKE, the protein stability index was determined as 2.24.

On to NDDSADYQSFLQDCVDGLFKEVKE, for which the protein stability index amounted to 3.43.

As to NDDSADYQIFLQDCVDGLFKEVKE, the protein stability index is 2.48.

For the variant NDDSADYQNFLQDCVDGLFKEVKE, the protein stability index is 3.02.

Take NDDSADYQCFLQDCVDGLFKEVKE: the protein stability index was 2.53.

As for NDDSADYQHFLQDCVDGGFKEVKE, the protein stability index amounted to 5.6.

Consider NDDSADYQHFLQDCVDGCFKEVKE, for which the protein stability index was 5.13.

For NDDSADYQHFLQDCVDGWFKEVKE, the protein stability index stood at 4.64.

Take NDDSADYQHFLQDCVDGQFKEVKE: the protein stability index was found to be 5.2.

Consider NDDSADYQHFLQDCVDGMFKEVKE, for which the protein stability index was 4.47.

For the variant NDDSADYQHFLQDCVDGSFKEVKE, the protein stability index was determined as 5.03.

On to NDDSADYQHFLQDCVDGLFKEVFE, for which the protein stability index is 2.83.

Regarding NDDSADYQHFLQDCVDGLFKEVPE, the protein stability index amounted to 4.57.

For the variant NDDSADYQHFLQDCVDGLFKEVME, the protein stability index was 2.01.

As to NDDSADYQHFLQDCVDGLFKEVDE, the protein stability index stood at 4.98.

For NDDSADYQHFLQDCVDGLFKEVHE, the protein stability index was 3.88.
